Here are results for nine sequences from the DeepSol protein solubility set.

The nature of this data set: soluble on expression in E. coli; label from the status in PepcDB or PDB records.
As for “MRLFIAEKPSLARAIADVLPKPHRKGDGFIECGNGQVVTWCIGHLLEQAQPDAYDSRYARWNLADLPIVPEKWQLQPRPSVTKQLNVIKRFLHEASEIVHAGDPDREGQLLVDEVLDYLQLAPEKRQQVQRCLINDLNPQAVERAIDRLRSNSEFVPLCVSALARARADWLYGINMTRAYTILGRNAGYQGVLSVGRVQTPVLGLVVRRDEEIENFVAKDFFEVKAHIVTPADERFTAIWQPSEACEPYQDEEGRLLHRPLAEHVVNRISGQPAIVTSYNDKRESESAPLPFSLSALQIEAAKRFGLSAQNVLDICQKLYETHKLITYPRSDCRYLPEEHFAGRHAVMNAISVHAPDLLPQPVVDPDIRNRCWDDKKVDAHHAIIPTARSSAINLTENEAKVYNLIARQYLMQFCPDAVFRKCVIELDIAKGKFVAKARFLAEAGWRTLLGSKERDEENDGTPLPVVAKGDELLCEKGEVVERQTQPPRHFTDATLLSAMTGIARFVQDKDLKKILRATDGLGTEATRAGIIELLFKRGFLTKKGRYIHSTDAGKALFHSLPEMATRPDMTAHWESVLTQISEKQCRYQDFMQPLVGTLYQLIDQAKRTPVRQFRGIVAPGSGGSADKKKAAPRKRSAKKSPPADEVGSGAIAHHHHHH”, the “soluble on expression in E. coli” value was “soluble”.

On to “MKLRTKIKRVRDVELPKYAKTGDSGFDLVAAEDTVIWPGETKVVPTGLAFEIPPGYELQVRPRSGMTRNTKLRVVLGTVDSGYRGEVGVLVDNTEIPKATNMQAHVIEKGTRIAQGVIVPVITAHFEEVDELSDSERGSGGFGSTGVK”, for which the “soluble on expression in E. coli” value was “not soluble”.

Take “GMNNIIVGMGEALWDVLPEGKKIGGAPANFAYHVSQFGFDSRVVSAVGNDELGDEIMEVFKEKQLKNQIERVDYPTGTVQVTLDDEGVPCYEIKEGVAWDNIPFTDELKRLALNTRAVCFGSLAQRNEVSRATINRFLDTMPDIDGQLKIFDINLRQDFYTKEVLRESFKRCNILKINDEELVTISRMFGYPGIDLQDKCWILLAKYNLKMLILTCGINGSYVFTPGVVSFQETPKVPVADTVGAGDSFTAAFCASILNGKSVPEAHKLAVEVSAYVCTQSGAMPELPVILKDRLL”: the “soluble on expression in E. coli” value was “soluble”.

Consider “MEDLDALWERYREAVRAGGNPQALYQEMVWPALLALWREKPRVYPFPQAFAVSVHTLGTSPEATALAILGAGAERVYVLHTPESARFLPRLRQDTGKDLYPVEIGKSDVEAIYREVKRLLEKHPEVPVALDLTSGTKAMSAGLAAAGFFFQRFYPKVRVVYVDNEDYDPELRRPRAGTEKLRILPNPHEALAEVDALFAKELYGKGEFGQAAAYFRGMVGRTGNQAYALYALLAEMYRAWRALDFGEALKAGRKLLGQLSQNVWLNHPLNARREALEAQVALLEAVDRFLKARDFALKEGVYGLARTLLHLAQEAKEEAAVLAALYAYRALELLLQERLALLGRRAEAPGLSPEEAEALRKALAELLGVLPEEVRLPAKLGLLDLLAFLRLKGDEALGRLSLAELRGLAGALKGRNSALLVHGFDVPSPKAVEGIARLAQGLLQDLEARTALGPLSPEPVPLGF”, for which the “soluble on expression in E. coli” value is recorded as “soluble”.

“MSLIQLRPCPKSYTRDQDKATTPAETVRRVRERLASLDISILAETRRVDVGRLGIPVFLSVCGADARAVMPTRKQMGKGASLEQAQASALMELMERYSFFTFWRDMPGMVEATWSEARNRFGDALIPVDEILHSVHDTLSPDDAVRALDLWRWKFFPATDITHGREVWLPLDWFKKLGEFNGSSAGNTEEESILQGSCELVERHVCCLIDRTQPELPTIDPASLDDPVLLELAAAFERNGIRLVLKDFSMGMPVPTVGAIAWDPATFPERSEIVYTAGTSSSPVKAAIRAVTEVAQLAGDFCTGACYEASGLSKYESLDDIAWLVAGPVVALDTLPSVETDDIRDELAALCDGLAATGHTLYSVSTMNPDVGVNTHYNIVPGFHFRERDRNASLGLFIGRILSEEADAGTALAGLSVLEELYPGAHFLPFFKGMLALRAESHHEAISFFEQAEPLQPEADSRGLAAFYGAYVRTLLTDWQGALPGLDRAVTECPEMKEYFNLRGVCHFKLGDYAQAAQNFAQVLHIDKGAVVDLANLGLCHKFMGDTEKAEELLSAALEIDPGLDFARRHLDEMREGHHHHHH”: the “soluble on expression in E. coli” value was “soluble”.

Consider “MAHHHHHHMGTLEAQTQGPGSMNAAVIDSHSAQDYVVADIALAGWGRKELNIAETEMPGLVQIRDEYKAQQPLKGARIAGSLHMTIQTGVLIETLKALGADVRWASCNIFSTQDHAAAAIVEAGTPVFAFKGESLDEYWEFSHRIFEWPNGEFANMILDDGGDATLLLILGSKAEKDRSVIARPTNEEEVALFKSIERHLEIDGSWYSKRLAHIKGVTEETTTGVHRLYQMEKDGRLPFPAFNVNDSVTKSKFDNLYGCRESLVDGIKRATDVMIAGKIAVVAGYGDVGKGCAQSLRGLGATVWVTEIDPICALQAAMEGYRVVTMEYAADKADIFVTATGNYHVINHDHMKAMRHNAIVCNIGHFDSEIDVASTRQYQWENIKPQVDHIIFPDGKRVILLAEGRLVNLGCATGHPSFVMSNSFTNQTLAQIELFTRGGEYANKVYVLPKHLDEKVARLHLARIGAQLSELSDDQAAYIGVSKAGPFKPDHYRY”, for which the “soluble on expression in E. coli” value is “soluble”.

For the sequence “SEVRWCATSDPEQHKCGNMSEAFREAGIQPSLLCVRGTSADHCVQLIAAQEADAITLDGGAIYEAGKEHGLKPVVGEVYDQEVGTSYYAVAVVRRSSHVTIDTLKGVKSCHTGINRTVGWNVPVGYLVESGRLSVMGCDVLKAVSDYFGGSCVPGAGETSYSESLCRLCRGDSSGEGVCDKSPLERYYDYSGAFRCLAEGAGDVAFVKHSTVLENTDGKTLPSWGQALLSQDFELLCRDGSRADVTEWRQCHLARVPAHAVVVRADTDGGLIFRLLNEGQRLFSHEGSSFQMFSSEAYGQKDLLFKDSTSELVPIATQTYEAWLGHEYLHAMKGLLCDPNRLPPYLRWCVLSTPEIQKCGDMAVAFRRQRLKPEIQCVSAKSPQHCMERIQAEQVDAVTLSGEDIYTAGKKYGLVPAAGEHYAPEDSSNSYYVVAVVRRDSSHAFTLDELRGKRSCHAGFGSPAGWDVPVGALIQRGFIRPKDCDVLTAVSEFFNASCVPVNNPKNYPSSLCALCVGDEQGRNKCVGNSQERYYGYRGAFRCLVENAGDVAFVRHTTVFDNTNGHNSEPWAAELRSEDYELLCPNGARAEVSQFAACNLAQIPPHAVMVRPDTNIFTVYGLLDKAQDLFGDDHNKNGFKMFDSSNYHGQDLLFKDATVRAVPVGEKTTYRGWLGLDYVAALEGMSSQQC”, the “soluble on expression in E. coli” value is “soluble”.

Turning to “MSLAILIVECMQEISSFNPVPSDYELFHIEEGEDLFQHRGRNTAIGGALSVLEATPGVTLIPTVAARADSAGILSAEGWARLSAQILDRVRAGVGGADAIYVSLHGAMGAVGEPDPEGWLLAQIRALAGPDRPIIISLDLHGILTERMIAQVDGIAVYHTYPHVDFADTGARAARLLLDRLTARRPASIVRAVIPALVRGDELITATGCYGDLIRECRRLEADGMVLAAGLMIGNPFTDAPELCSQVVLTTDDPLRGRAEAERLAAAFWALRHRMQGRLIGLSDAVAEARTLTGPVVFTDAADATSSGASGDSNAILRGLLAADYPGRVLAQIVDPQAAEAAHRAGVGAEIPVTLGGRMDPARFTPLEVTARVRLLSDGLTRLETMKTPLNAGRCAVLEFGTVTVVAMSLPAMLFDRAIYYANGLDPADFDLIVVKSPHTEHHMYDAWVTRNFNIDTPGSTSADLASLGHRICARPMFPLDPLTDFTPRATAHLRADRSEGHHHHHH”, the “soluble on expression in E. coli” value is reported as “soluble”.

As to “GPGSMLRRTDRCGQRKVEKLLVANRGEIACRVFRTCREMHIRTVALFCEAERNAKHVVEADEAVCIGPPPAVNSYLRGDHIISVAKQLNVDAIHPGYGFLSENADFAEAVTRSGIEFIGPPASAISLMGSKSESKRIMEAAGVPVVPGYYGENQNVSFLAEEANRVGFPILIKAVSGGGGKGMKIVERPEDFAFMLESAKREAANFFKDDRVILERYVKRPRHIECQIFFDKHGRGVFFFERDCSVQRRYQKVLEEAPAPHLSMEMRQRIGEVALQAAKAVGYVGAGTVEFIFDTSTGDFYFMEMNTRLQVEHPVTEEVCRIKGAPLDLVKLQIKTAMGKPLTFSQEDVALVGSCIEARVYAESPERGFLPESGPLTFIREPFQGVRGPTRTRLDTGFCEGDNVLIHYDPMLAKVISWGRNREDALKGLRQALGEYKVAGINTNIEFLKRCCEAPEFARGGVTTNFISEHEKQLLNAPAVTPKVAAMAATAWLLNRCDNWRGAFRLNGDTSATVHFYIDNRPVEVRLHTEGANYHKIFFSVWDHEGSFAVGSGPVTSKHRDQRSIVNGFTFLFENGMRHTVLAVATEGDVTIIGSFGLHQIRLLPLTDGFGDASMAGGTSAKIVSPMPGKVSKFLVNSGDFVEKGQALMIVEAMKMEHPVKALQDGQVSFLVKEGEVVGSDHVLATVVQKE”, the “soluble on expression in E. coli” value was “not soluble”.
